Assay results from the supplement of paper PMC10567573.

B1: RSPH3 (parent)
chain: KAASLARNLAKRRRTYLGGAAGRS
B2: HDAC6 (parent)
chain: QYMNEGELRVLADTYDSVYLHPNS

Variants of: B1
Test: protein stability index of a GFP-peptide fusion (GPS, HEK-293T) (PSI 1-6); higher = more stable
Details: c terminus: a fixed tail appended
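Further: lentivirally expressed fusions sorted by FACS into six bins by GFP to DsRed ratio, PSI derived from sequencing read proportions per bin multiplied by bin number.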

Protein stability index: each site, then its substitutions
K1: F 1.47, H 2.49, W 2.29, C 1.87, A 1.98, T 2.98, G 3.77
A2: E 3.41

Variants of: B2
Test: as above
Details: c terminus: a fixed tail appended

Protein stability index of substitutions, site by site:
D16: S 3.08, E 2.42, V 2.42, C 4.03, W 4.07, T 1.8, P 2.56, F 3.19
S17: Y 1.47, T 2.37, E 2.99, R 2.18, W 2.57, P 3.32, V 2.09, M 1.95, G 2.05, D 2.56, F 2.53, L 2.02, Q 2.5, N 2.08, K 1.78, H 2.07, I 2.32, C 2.46
Y19: M 1.9, F 2.11, N 2.62, E 3.03, L 2.1, K 1.71, H 2.45, V 4.09, I 1.79, T 3.2, S 2.14, G 3.72, A 2.49, Q 3, P 2.32, R 1.59, W 4.22, C 2.13, D 3.32
Y15: W 2.25, V 2.38, T 2.82
V18: P 1.92, K 2.63, H 2.68, G 2.6, M 2.25, W 2.1, I 1.51, S 2.88, C 2.17, F 2.23, A 2.56, D 2.87, T 1.77, N 2.98, R 2.63, E 3.18, L 1.95, Q 3.02, Y 2.21
N23: W 1.46, Q 1.92, S 2.34, R 2.17, P 1.57, V 2.03, D 1.8, M 1.23, H 1.94, F 1.96, K 2.36, T 2.03, L 1.6, E 2.69, I 2.31, Y 1.73, A 1.43, C 1.99
P22: M 2.15, E 2.13, N 1.38, S 1.68, D 2.37, H 2.4, A 2.15, L 1.3, V 1.83, Q 1.58, R 1.96, Y 1.41, K 1.96, F 1.82, I 2.08, C 1.85, T 1.66, W 2.56, G 2.27
L20: F 2, M 2.14, K 1.87, D 3.27, T 2.88, Q 2.58, W 1.67, H 3, I 1.39, A 2.54, S 3.32, G 2.14, R 2.06, Y 2.38, V 2.22, P 2.68, E 2.26, N 2.42
H21: Y 2.18, E 2.33, C 3.56, P 1.85, I 2.25, G 1.64, A 1.43, Q 2.11, N 2.21, W 1.84, M 1.47, S 1.55, F 3.64, T 1.38, K 1.92, R 1.76, L 1.71, D 1.84
S24: Q 3.76, M 1.57, C 1.64, L 1.52, G 2.24, D 2.58, T 1.52, V 1.74, K 1.46, A 1.44, N 2.04, E 1.73, F 1.58, R 2.4, Y 1.41, W 1.24, P 1.91, H 1.61, I 3.21
